# Source: PMC7301157
# Target: Clb3-Cdk1 (S. cerevisiae) (UniProt P24870)
# Chain of UniProt P24870 (P24870 whole entry, chain 1 of 2): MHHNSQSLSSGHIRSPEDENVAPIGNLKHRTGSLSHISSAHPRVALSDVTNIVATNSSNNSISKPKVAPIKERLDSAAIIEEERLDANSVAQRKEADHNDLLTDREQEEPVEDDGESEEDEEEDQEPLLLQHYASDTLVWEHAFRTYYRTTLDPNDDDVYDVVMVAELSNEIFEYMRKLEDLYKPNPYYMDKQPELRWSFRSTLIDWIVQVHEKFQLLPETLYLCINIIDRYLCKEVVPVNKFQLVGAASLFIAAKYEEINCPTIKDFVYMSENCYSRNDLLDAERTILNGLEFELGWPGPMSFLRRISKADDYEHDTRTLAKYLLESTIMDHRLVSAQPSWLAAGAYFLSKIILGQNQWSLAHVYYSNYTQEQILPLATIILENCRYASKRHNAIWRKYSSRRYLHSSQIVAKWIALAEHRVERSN
# Chain of UniProt P24870 (P00546 whole entry, chain 2 of 2, further chain): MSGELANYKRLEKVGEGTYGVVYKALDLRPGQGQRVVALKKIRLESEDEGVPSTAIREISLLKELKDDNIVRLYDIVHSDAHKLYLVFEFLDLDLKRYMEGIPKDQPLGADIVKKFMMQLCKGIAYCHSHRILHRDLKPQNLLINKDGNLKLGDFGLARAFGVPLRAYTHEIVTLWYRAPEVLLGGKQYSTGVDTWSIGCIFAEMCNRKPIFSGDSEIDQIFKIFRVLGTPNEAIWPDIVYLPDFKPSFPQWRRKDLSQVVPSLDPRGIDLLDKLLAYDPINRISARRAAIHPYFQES
substance,measurement,value
Sic1(1–33 SPxA) model substrate with PPKGPNF (from UniProt P38634 1-33),increase of the phosphorylation rate of the model substrate by Clb3-Cdk1,65 fold
